In PMC314469, “Protein Interaction Networks by Proteome Peptide Scanning” (PLoS Biology, 2004):

T1: amphyphisin SH3 (AMPH_HUMAN), P49418
T1 chain: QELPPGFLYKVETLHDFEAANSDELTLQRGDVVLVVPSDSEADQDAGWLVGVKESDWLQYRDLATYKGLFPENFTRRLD


Experiments:
[1] = biological target: T1, amphyphisin SH3 (AMPH_HUMAN), P49418; assay: SPOT array
[2] = biological target: endophilin SH3 (SH3G2_HUMAN), Q99962; assay: SPOT array

| Binder | normalised SPOT signal, Boehringer light units (BLU); mean over the file's lines of this peptide [1] | normalised SPOT signal, Boehringer light units (BLU); mean over the file's lines of this peptide [2] |
| --- | --- | --- |
| VPGDPRRPYPTDLE [Q9NPJ6 168-181] | 11.9 | 39.7 |
| VPKPPPKPPSPPAP [P17405 180-194] | 71.9 | 352 |
| VPLPPARPPTRDNP [Q13191 775-789] | 1730 | 592 |
| VPMPIARPARQTSR [Q9Y6R4 202-215] | 9590 | 1680 |
| VPPGLRRPGPGTLY [P56945 374-387] | 41.5 | 43.6 |
| VPPPPARPPPRSAR [Q8WY41 65-79] | 14700 | 11800 |
| VPPRPPRPPETART [P52849 69-83] | 5100 | 5710 |
| VPQKPERPPLPPEP [Q9H7F7 96-110] | 216 | 4660 |
| SLGLPSRPPSQLSG [Q8TBS2 64-78] | 42.4 | 101 |
| VPQKPERPPLPPKP [Q96C88 96-110] | 2630 | 13800 |
| VPRDLRRPASLIGQ [O60503 967-980] | 25.8 | 19.5 |
| VPSLPIRPSRAPSR [O43426 1061-1074] | 21500 | 24800 |
| VQPQLRRPFELLIA [Q96QT6 202-215] | 33.9 | 41 |
| VQSIINRPRKSPLP [O75970 1239-1252] | 109 | 84.7 |
| VRLLIRRPESFGPA [Q92736 2321-2334] | 15.5 | 539 |
| VRLPFHRPPRAGAW [Q9UKN7 887-900] | 2830 | 455 |

| Binder | normalised SPOT signal, Boehringer light units (BLU); mean over the file's lines of this peptide [1] | normalised SPOT signal, Boehringer light units (BLU); mean over the file's lines of this peptide [2] |
| --- | --- | --- |
| VRPPPARPPSGPGL [BAC04982 161-175] | 966 | 13000 |
| VRRIPTRPPRAPRL [Q9NWD7 62-76] | 25000 | 14400 |
| VRSRFKRPKPNLAR [Q9HCY0 1434-1447] | 37 | 43.1 |
| SLLRPWRPLRARGS [Q9NV38 6-19] | 6960 | 2400 |
| VRYPISRPRRRSSP [P10915 314-327] | 883 | 961 |
| VSAALRRPGPSLVL [Q9BSQ9 205-218] | 34 | 0 |
| VSGPPRKPPGTVAG [O00255 515-529] | 61.2 | 63.4 |
| VSHLIRRPISVNPN [Q9NXY9 858-871] | 36.8 | 381 |
| VSMQLRRPSDRELS [Q04206 268-281] | 44.8 | 642 |
| ASEIIERPSKKDGF [Q9BZF1 153-166] | 129 | 0.4 |
| VSPEPRRPAPAVSP [Q96JM3 305-318] | 233 | 10.4 |
| VSVLPKRPRPAEFK [Q96QH2 350-363] | 54.2 | 5850 |
| VSYPPSKPPTYEEQ [Q15134 299-313] | 56.5 | 42.4 |
| VTSRFKRPVNVPRD [Q9P0K9 253-266] | 32.8 | 33.4 |
| VTDLPKKPPPPEAT [Q96QH2 111-125] | 51.8 | 58 |
